Test results from PMC5766498 (Nature Communications, 2018).

target: T1, Met1-linked diUb (M1-Ub2) (human, UniProt P0CG47 1-76; P0CG47 1-76); test: SPR; untagged LRM1-UMI or UDM2ΔC covalently immobilised on CM5 by amine coupling (10 mM sodium acetate pH 4.0 or 4.5); Ub2 species injected; HBS-P, 25 °C; steady-state fit, 1:1 model; settings: both partners purified
T1 construct: ubiquitin, human, first (distal) moiety of the linear diUb; ubiquitin, human, second (proximal) moiety, its Met1 joined to Gly76 of the first; Expressed from a human M1-Ub2 gene as one chain; source: E. coli Rosetta (DE3), pET26b, purified (heat step, ResourceS, Superdex75)

Kd [µM] | Binder
200 | untagged RNF168 LRM1-UMI (residues 110-166) (domain or fragment, human, UniProt Q8IYW5 110-166, looked up, Printed as untagged; also called LRM1–UMI (untagged); source: E. coli Rosetta (DE3), purified) LSKPGELRREYEEEISKVAAERRASEEEENKASEEYIQRLLAEEEEEEKRQAEKRRR
145 | EETEINFTQKLIDLEHLLFERHKQEEQDRLLALQLQKEVDKEQM (domain or fragment, human, UniProt Q8IYW5 419-462, looked up, RNF168, human, residues 419-462 (UDM2ΔC); also called UDM2ΔC (untagged); UAD–MIU2; source: E. coli Rosetta (DE3), purified (Glutathione Sepharose, HRV3C cleavage, ResourceQ, Superdex75)) [untagged RNF168 UDM2ΔC (residues 419-462)]

target: T1, Met1-linked diUb (M1-Ub2); test: pull-down; 100 µg His6-fused RNF168 on Ni-NTA beads, 15 µg Ub2 species, 25 mM Tris-HCl pH 8.0, 20 mM imidazole, 0.1% Triton X-100, 100 mM NaCl, on ice 2 h; SDS-PAGE, Coomassie (Supplementary Fig. 1a); settings: both partners purified

binding result | Binder
binds | His6-fused RNF168 UMI-MIU1 (residues 134-188) (domain or fragment, human, UniProt Q8IYW5 134-188, looked up, source: E. coli, purified (Ni-NTA, then as UDM2ΔC)) SEEEENKASEEYIQRLLAEEEEEEKRQAEKRRRAMEEQLKSDEELARKLSIDINN

target: T1, Met1-linked diUb (M1-Ub2); test: SPR; GST-fused RNF168 domains captured by immobilised anti-GST antibody on CM5 chip (1000-1500 RU); Ub2 species injected 60 s at 10 µL per min; HBS-P (10 mM HEPES-Na pH 7.4, 150 mM NaCl, 0.05% P20), 25 °C; steady-state fit, 1:1 model; settings: both partners purified

Kd [µM] | Binder
238 | GST-tagged RNF168 UDM2 (residues 419-487) (domain or fragment, human, UniProt Q8IYW5 419-487, looked up, RNF168, human, residues 419-487 (UDM2); source: E. coli Rosetta (DE3), purified (Glutathione Sepharose)) EETEINFTQKLIDLEHLLFERHKQEEQDRLLALQLQKEVDKEQMVPNRQKGSPDEYHLRATSSPPDKVL
233 | AEKRRRAMEEQLKSDEELARKLSIDINNFCEGSI (domain or fragment, human, UniProt Q8IYW5 161-194, looked up, RNF168, human, residues 161-194 (MIU1 alone); This construct is not in the methods' list of constructs; its limits stand in the results only; also called MIU1 alone; source: E. coli Rosetta (DE3), purified (Glutathione Sepharose)) [GST-tagged RNF168 MIU1 (residues 161-194)]
206 | GST-tagged RNF168 LRM1 (L116A)-UMI (domain or fragment, human, UniProt Q8IYW5 110-166, looked up, source: E. coli Rosetta (DE3), purified (Glutathione Sepharose)) LSKPGEARREYEEEISKVAAERRASEEEENKASEEYIQRLLAEEEEEEKRQAEKRRR
231 | GST-tagged RNF168 LRM1-UMI (residues 110-166) (domain or fragment, human, UniProt Q8IYW5 110-166, looked up, Cloned into pCold-GST; also called N-terminal part of UDM1; source: E. coli Rosetta (DE3), purified (Glutathione Sepharose)) LSKPGELRREYEEEISKVAAERRASEEEENKASEEYIQRLLAEEEEEEKRQAEKRRR
236 | GST-tagged RNF168 LRM1 (Y120A)-UMI (domain or fragment, human, UniProt Q8IYW5 110-166, looked up, source: E. coli Rosetta (DE3), purified (Glutathione Sepharose)) LSKPGELRREAEEEISKVAAERRASEEEENKASEEYIQRLLAEEEEEEKRQAEKRRR
965 | GST-tagged RNF168 LRM1-UMI (S142A) (domain or fragment, human, UniProt Q8IYW5 110-166, looked up, source: E. coli Rosetta (DE3), purified (Glutathione Sepharose)) LSKPGELRREYEEEISKVAAERRASEEEENKAAEEYIQRLLAEEEEEEKRQAEKRRR
1150 | GST-tagged RNF168 LRM1-UMI (L149A) (domain or fragment, human, UniProt Q8IYW5 110-166, looked up, source: E. coli Rosetta (DE3), purified (Glutathione Sepharose)) LSKPGELRREYEEEISKVAAERRASEEEENKASEEYIQRALAEEEEEEKRQAEKRRR
306 | SEEEENKASEEYIQRLLAEEEEEEKRQAEKRRR (domain or fragment, human, UniProt Q8IYW5 134-166, looked up, Cloned into pCold-GST; source: E. coli Rosetta (DE3), purified (Glutathione Sepharose)) [GST-tagged RNF168 UMI (residues 134-166)]
235 | LFERHKQEEQDRLLALQLQKEVDKEQM (domain or fragment, human, UniProt Q8IYW5 436-462, looked up, RNF168, human, residues 436-462 (MIU2); source: E. coli Rosetta (DE3), purified (Glutathione Sepharose)) [GST-tagged RNF168 MIU2 (residues 436-462)]
221 | EETEINFTQKLIDLEHLLFERHKQEEQDRLLALQLQKEVDKEQM (domain or fragment, human, UniProt Q8IYW5 419-462, looked up, RNF168, human, residues 419-462 (UDM2ΔC); also called UAD–MIU2; source: E. coli Rosetta (DE3), purified (Glutathione Sepharose)) [GST-tagged RNF168 UDM2ΔC (residues 419-462)]
495 | EETEINFTQKLIDLEHLLFEAHKQEEQDRLLALQLQKEVDKEQM (domain or fragment, human, UniProt Q8IYW5 419-462, looked up, RNF168, human, residues 419-462 (UDM2ΔC) with R439A; source: E. coli Rosetta (DE3), purified (Glutathione Sepharose)) [GST-tagged RNF168 UDM2ΔC (R439A)]
160 | EETEINFTQKLIDLEHLTFERHKQEEQDRLLALQLQKEVDKEQM (domain or fragment, human, UniProt Q8IYW5 419-462, looked up, RNF168, human, residues 419-462 (UDM2ΔC) with L436T; source: E. coli Rosetta (DE3), purified (Glutathione Sepharose)) [GST-tagged RNF168 UDM2ΔC (L436T)]
214 | EETEINFTQKLIDLRHLLFERHKQEEQDRLLALQLQKEVDKEQM (domain or fragment, human, UniProt Q8IYW5 419-462, looked up, RNF168, human, residues 419-462 (UDM2ΔC) with E433R; source: E. coli Rosetta (DE3), purified (Glutathione Sepharose)) [GST-tagged RNF168 UDM2ΔC (E433R)]
